Biological target: the molecule itself
Assay: amyloid fibril formation (ThT fluorescence, Congo red, TEM, CD); PAP248-286 alone at 3 mg/ml in PBS, agitated at 1,400 rpm, 37°C, 0-48 h; fibrils read by ThT fluorescence, Congo red staining, negative-stain TEM and CD

B1: Peptide PAP248-286 (amino acid residues 248-286 of prostatic acidic phosphatase) (peptide, UniProt P15309 248-286, looked up)
peptide: GIHKQKEKSRLQGGVLVNEILNHMKRATQIPSYKKLIMY
notes: Forms SEVI amyloid fibrils when agitated at 3 mg/ml in PBS, 37°C; also called SEVI; SEVI fibrils; source: synthetic peptide (Fmoc solid phase, GL Biochem, HPLC purified)
- binding result: binds

Reference: publication PMC6018217, “3-Hydroxyphthalic Anhydride- Modified Rabbit Anti-PAP IgG as a Potential Bifunctional HIV-1 Entry Inhibitor” (Frontiers in Microbiology, 2018)
